Experimental data taken from patent US20180127513A1 (published 2018).
Positions count from the first letter of the chain named. In names and notes the source's numbering stands.

T1: human CD73 on cells (UniProt P21589 27-549)
T1 chain: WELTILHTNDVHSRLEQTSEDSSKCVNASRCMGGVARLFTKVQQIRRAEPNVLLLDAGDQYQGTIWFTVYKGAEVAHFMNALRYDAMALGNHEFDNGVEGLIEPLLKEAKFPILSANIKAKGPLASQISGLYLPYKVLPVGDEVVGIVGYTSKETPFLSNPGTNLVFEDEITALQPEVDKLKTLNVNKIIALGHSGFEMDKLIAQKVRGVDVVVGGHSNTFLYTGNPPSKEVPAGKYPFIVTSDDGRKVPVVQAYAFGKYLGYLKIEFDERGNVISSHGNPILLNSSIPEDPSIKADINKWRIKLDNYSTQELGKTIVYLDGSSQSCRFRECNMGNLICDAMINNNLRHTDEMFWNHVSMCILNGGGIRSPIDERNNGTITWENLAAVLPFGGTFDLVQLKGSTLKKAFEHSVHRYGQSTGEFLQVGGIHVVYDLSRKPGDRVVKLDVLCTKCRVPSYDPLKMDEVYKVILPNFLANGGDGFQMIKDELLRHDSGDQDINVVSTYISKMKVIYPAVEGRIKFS

B1: 11F11 (antibody, V domains shown)
VH: QVQLVESGGGVVQPGRSLRLSCATSGFTFSNYGMHWVRQAPGKGLEWVAVILYDGSNKYYPDSVKGRFTISRDNSKNTLYLQMNSLRAEDTAVYYCARGGSSWYPDSFDIWGQGTMVTVSS
VL: DIQMTQSPSSLSASVGDRVTITCRASQGISSWLAWYQQKPEKAPKSLIYAASSLQSGVPSRFSGSGSGTDFTLTISSLQPEDFATYYCQQYNSYPLTFGGGTKVEIKR
B2: CD73.4-IgG2-C219S-IgG1.1f (antibody)
heavy: QVQLVESGGGVVQPGRSLRLSCAASGFTFSNYGMHWVRQAPGKGLEWVAVILYDGSNKYYPDSVKGRFTISRDNSKNTLYLQMNSLRAEDTAVYYCARGGSSWYPDSFDIWGQGTMVTVSSASTKGPSVFPLAPCSRSTSESTAALGCLVKDYFPEPVTVSWNSGALTSGVHTFPAVLQSSGLYSLSSVVTVPSSNFGTQTYTCNVDHKPSNTKVDKTVERKSCVECPPCPAPPVAGPSVFLFPPKPKDTLMISRTPEVTCVVVDVSHEDPEVKFNWYVDGVEVHNAKTKPREEQYNSTYRVVSVLTVLHQDWLNGKEYKCKVSNKALPSSIEKTISKAKGQPREPQVYTLPPSREEMTKNQVSLTCLVKGFYPSDIAVEWESNGQPENNYKTTPPVLDSDGSFFLYSKLTVDKSRWQQGNVFSCSVMHEALHNHYTQKSLSLSPG
light: not shown
modifications: N-terminal Gln 94% pyro-Q; 97% of heavy chains lack the C-terminal Lys
B3: CD73.10-IgG2-C219S (antibody)
heavy: QVQLVESGGGVVQPGRSLRLSCAASGFTFSNYGMHWVRQAPGKGLEWVAVIWYDESNKYYPDSVKGRFTISRDNSKNTLYLQMNSLRAEDTAVYYCARGGSSWYPDSFDIWGQGTMVTVSSASTKGPSVFPLAPCSRSTSESTAALGCLVKDYFPEPVTVSWNSGALTSGVHTFPAVLQSSGLYSLSSVVTVPSSNFGTQTYTCNVDHKPSNTKVDKTVERKSCVECPPCPAPPVAGPSVFLFPPKPKDTLMISRTPEVTCVVVDVSHEDPEVQFNWYVDGVEVHNAKTKPREEQFNSTFRVVSVLTVVHQDWLNGKEYKCKVSNKGLPAPIEKTISKTKGQPREPQVYTLPPSREEMTKNQVSLTCLVKGFYPSDIAVEWESNGQPENNYKTTPPMLDSDGSFFLYSKLTVDKSRWQQGNVFSCSVMHEALHNHYTQKSLSLSPG
light: not shown
B4: CD73.4-IgG2-C219S (antibody)
heavy: B3 heavy with W52L, E55G
light: not shown
B5: CD73.10-IgG2-C219S-IgG1.1f (antibody)
heavy: B2 heavy with L52W, G55E
light: not shown

Biological target: T1, human CD73 on cells
Assay: FACS cell binding; Calu6 cells

Binder	Kd
B1	0.188 µg/mL
B2	0.0964 µg/mL
B3	0.162 µg/mL
B4	0.0826 µg/mL
B5	0.156 µg/mL
